Article PMC11368889 (2024)

Target: Histone H3 (H3K9me3) (Homo sapiens, UniProt P68431)
Experiment: fluorescence microscopy titration in fixed HEK293 cells (Hill1 fit)

Kd: 0.49 µM
B1: MPP8-Green (MPP8-mNeonGreen-NLS-MPP8) 55-117 (protein)
chain: GEDVFEVEKILDMKTEGGKVLYKVRWKGYTSDDDTWEPEIHLEDCKEVLLEFRKKIAENKAKA
